Assay results: article PMC11853025
Substitutions are numbered along the chain they refer to. Names and notes keep the numbering of the source. Values belong to the binder of their own block, whether it stands above or below them.

Experiments:
iC3b [1] = biological target: iC3b (UniProt P01024); experiment: SPR; C3b deposited on a CM5 chip (amine-coupled seed, then convertase-mediated deposition to about 5000 RU), iC3b and C3dg made from it on the chip; αI domains injected as dilution series, 120 s; Biacore T200, 25 °C; HBST (10 mM HEPES, 150 mM NaCl, 0.005% Tween-20, pH 7.4) with 1 mM MgCl2; Langmuir 1:1 fit, KD calculated
iC3b [2] = biological target: iC3b (UniProt P01024); experiment: SPR; competitive: αI domains at 5 µM preincubated with simvastatin (3-100 µM), injected over immobilised iC3b or ICAM-1; HBST with 1 mM MgCl2 and 5% DMSO; signal as percent of the non-inhibited signal

Kd (iC3b [1]): 33 µM
B1: CR4 αXI domain, wild type (WT) (domain or fragment)
chain: QEQDIVFLIDGSGSISSRNFATMMNFVRAVISQFQRPSTQFSLMQFSNKFQTHFTFEEFRRSSNPLSLLASVHQLQGFTYTATAIQNVVHRLFHASYGARRDAAKILIVITDGKKEGDSLDYKDVIPMADAAGIIRYAIGVGLAFQNRNSWKELNDIASKPSQEHIFKVEDFDALKDIQNQLKEKIFAI

residual binding activity with simvastatin (percent of the non-inhibited signal) (iC3b [2]): 63%
Kd (iC3b [1]): 2.6 µM
B2: CR4 αXI domain, high-affinity (HA) variant p.I333G (domain or fragment)
chain: B1 chain with I186G
